Paper PMC6521584, “Sucrose 6^F-phosphate phosphorylase: a novel insight in the human gut microbiome” (Microbial Genomics, 2019)

Test system: O=P(O)(O)OC[C@H]1O[C@@](CO)(O[C@H]2O[C@H](CO)[C@@H](O)[C@H](O)[C@H]2O)[C@@H](O)[C@@H]1O
Assay: purified protein
Format: biochemical, Mediterraneibacter gnavus
Conditions: phosphorolysis, 100 mM sodium phosphate buffer as co-substrate, pH 6.0, 40 °C, 1.0-20 mM substrate

Which results are given for “RgSPP (sucrose 6^F-phosphate phosphorylase; formerly SucP) (Mediterraneibacter gnavus)”?
Km: 1700 µM; kcat: 740 s⁻¹; kcat/Km: 435000 M⁻¹ s⁻¹
